Like-named read-outs stand apart in the source and are kept apart here.
How the values were obtained:
[1] = target: (p50(248-350)/RelA(190-321)) heterodimer, biotinylated (murine, UniProt P25799 248-350; Q04207 190-321, biotin PEO maleimide (on the added N-terminal cysteine)); experiment: SPR
[2] = target: T1, N-terminal hexahistidine-NFκB (His6-p50(39-350)/RelA(19-321)) heterodimer (UniProt P25799 39-350; Q04207 19-321); experiment: stopped-flow fluorescence
[3] = target: T1, N-terminal hexahistidine-NFκB …; experiment: stopped-flow fluorescence; remark: listed apart in the source

Binder | Kd [1] | kon [2] | kon [3]
Human wild-type IκBα(67-287) (domain or fragment, UniProt P25963 67-287, looked up) KQQLTEDGDSFLHLAIIHEEKALTMEVIRQVKGDLAFLNFQNNLQQTPLHLAVITNQPEIAEALLGAGCDPELRDFRGNTPLHLACEQGCLASVGVLTQSCTTPHLHSILKATNYNGHTCLHLASIHGYLGIVELLVSLGADVNAQEPCNGRTALHLAVDLQNPDLVSLLLKCGADVNRVTYQGYSPYQLTWGRPSTRIQQQLGQLTLENLQMLPESEDEE | 172 ± 4 pM | 1.4e+07 M⁻¹ s⁻¹ | –
IκBα(67-287) E282W (domain or fragment, human, UniProt P25963 67-287, looked up) KQQLTEDGDSFLHLAIIHEEKALTMEVIRQVKGDLAFLNFQNNLQQTPLHLAVITNQPEIAEALLGAGCDPELRDFRGNTPLHLACEQGCLASVGVLTQSCTTPHLHSILKATNYNGHTCLHLASIHGYLGIVELLVSLGADVNAQEPCNGRTALHLAVDLQNPDLVSLLLKCGADVNRVTYQGYSPYQLTWGRPSTRIQQQLGQLTLENLQMLPWSEDEE | 155 ± 14 pM | 1.1e+07 M⁻¹ s⁻¹ | 3.8e+06 M⁻¹ s⁻¹
IκBα(67-287) P261F (domain or fragment, human, UniProt P25963 67-287, looked up) KQQLTEDGDSFLHLAIIHEEKALTMEVIRQVKGDLAFLNFQNNLQQTPLHLAVITNQPEIAEALLGAGCDPELRDFRGNTPLHLACEQGCLASVGVLTQSCTTPHLHSILKATNYNGHTCLHLASIHGYLGIVELLVSLGADVNAQEPCNGRTALHLAVDLQNPDLVSLLLKCGADVNRVTYQGYSPYQLTWGRFSTRIQQQLGQLTLENLQMLPESEDEE | 462 ± 8 pM | 1.4e+07 M⁻¹ s⁻¹ | –

Source: publication PMC4040282 (Physical chemistry chemical physics : PCCP, 2014)
